Measurements published in US20140271651A1 (AbbVie / Abbott, published 2014).

T1: GP73-hFc (human GP73 amino acids 63 to 400 fused at the C-terminus to human IgG1 Fc) (human)
T1 construct: Expressed in HEK293F, CHO or HepG2 cells; the host is named under assay; also called HEK expressed GP73-hFc; CHO expressed GP73-hFc
T1 chain: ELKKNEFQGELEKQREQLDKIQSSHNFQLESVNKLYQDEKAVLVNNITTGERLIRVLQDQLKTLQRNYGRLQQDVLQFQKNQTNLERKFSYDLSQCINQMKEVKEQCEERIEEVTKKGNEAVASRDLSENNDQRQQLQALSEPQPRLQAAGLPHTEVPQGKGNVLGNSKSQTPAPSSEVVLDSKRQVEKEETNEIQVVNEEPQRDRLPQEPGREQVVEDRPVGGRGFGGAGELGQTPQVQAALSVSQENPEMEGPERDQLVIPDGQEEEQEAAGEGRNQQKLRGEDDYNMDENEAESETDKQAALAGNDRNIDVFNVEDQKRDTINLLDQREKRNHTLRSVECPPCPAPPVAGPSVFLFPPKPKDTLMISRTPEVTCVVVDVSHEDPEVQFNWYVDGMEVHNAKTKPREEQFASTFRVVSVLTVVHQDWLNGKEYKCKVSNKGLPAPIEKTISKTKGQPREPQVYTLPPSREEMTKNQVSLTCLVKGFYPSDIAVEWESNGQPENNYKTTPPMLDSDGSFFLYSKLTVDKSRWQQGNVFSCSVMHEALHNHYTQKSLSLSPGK


What was measured:
bovine serum albumin [1] = target: T2, bovine serum albumin (bovine, UniProt P02769 25-607); experiment: EIA, supernatant 1:25 captured on sheep anti-mouse IgG Fc, BSA in place of antigen
T2 construct: also called BSA
Protocol: (§1) Cell supernatant samples were analyzed for anti-GP73 antibodies by EIA. Sheep anti-mouse IgG Fc (Jackson Immunoresearch) was coated on 96 well micro-titer EIA plates at 1 μg/mL. After the capture reagent was coated on the solid phase, it was removed and the plates were blocked using a BSA/PBS block solution. The wells were washed with distilled water and cell supernatants were added to the blocked plates and allowed to incubate at room temperature for at least one hour. A mouse monoclonal antibody 14H4-23 (Drexel University) was used a positive control. The anti-mouse IgG Fc captured the anti-GP73 mouse antibody from the supernatant. Following the incubation, the supernatants were washed off using distilled water. An irrelevant mouse-human chimeric antibody was added to all wells and incubated at room temperature for 30 min to block any captured mouse antibodies that react with the human IgG Fc fusion protein linked to the GP73 antigen. The wells were washed with distilled water and GP73-hFc was added to the plates at 200 ng/mL and incubated for 30 min. Following this incubation, the antigen was washed from the plates using distilled water. Biotin labeled goat anti-GP73 was added to the plates at 200 ng/mL and incubated for 30 min at room temperature. The plates were washed and streptavidin-HRPO (Jackson Immunoresearch) (diluted to approximately 200 ng/mL) was added to the plates and allowed to incubate for 30 min. The plates were washed with distilled water and OPD substrate was used as the chromagen to generate signal. Plates were read at 492 nm and the results were analyzed.
(§2) Positive clones were expanded to 24 well plates in IMDM supplemented with 10% FBS and HT supplement. Following 5-14 days growth, the 24 well cultures were evaluated by EIA in the same manner as previously described, except the supernatant samples were titrated against GP73-hFc and BSA to eliminate non-specific protein binders. Once again the clones generating signal at least 3 times greater than background were considered positive and selected for further evaluation.

[2] = target: T1, GP73-hFc (human GP73 amino acids 63 to …); experiment: EIA, supernatant 1:25 captured on sheep anti-mouse IgG Fc, GP73-hFc, biotin goat anti-GP73
Protocol: as §1, §2

[3] = target: T1, GP73-hFc (human GP73 amino acids 63 to …); experiment: SPR Biacore 2000, mAb captured on rabbit anti-mouse IgG, HEK GP73-hFc analyte 0.412-100 nM, 1:1 fit
Protocol: First, an approximately 13,000-15,000 RU rabbit anti-mouse IgG Capture Biosensor was created by amine-coupling rabbit anti-mouse IgG antibody (GE Healthcare) to a CM5 biosensor chip (GE Healthcare) via EDC/NHS/ethanolamine chemistry provided in an Amine Coupling Kit (GE Healthcare) after pre-treating the biosensor with duplicate injections of 100 mM HCl, 50 mM NaOH, and 0.1% SDS. Purified GP73 antibody and antigen (HEK GP73-hFc) were diluted into a running buffer (hereinafter “running buffer”) composed of HBS-EP buffer (GE Healthcare) supplemented with 0.1% BSA and 0.1% CM-Dextran. Each GP73 antibody was diluted to 1 μg/mL. The GP73-hFc antigen was diluted to concentrations of 0.412 to 100 nM using a 3-fold dilution series assuming an oligomeric molecular weight of 490 kDa (Abbott Laboratories).
The GP73-hFc antigen program was as follows. After equilibrating the rabbit anti-mouse IgG Capture Biosensor for 3 min at 5 μL/minute with running buffer, GP73 antibody (7-14 μL) was injected over individual flow cells with one flow cell being left blank as a reference flow cell. The flow cells were washed with running buffer for 3 min at a flow rate of 60 μL/min. 150 μL of HEK293 expressed GP73-hFc antigen at a random concentration was injected across the biosensor. The biosensor was subsequently re-equilibrated with running buffer for 5 min at a flow rate of 60 μL/minute. All biosensor surfaces were regenerated with one 30 μL injection of 10 mM glycine, pH 1.7 (GE Healthcare), at a flow rate of 10 μL/minute. All concentrations of HEK293 expressed antigen were tested in duplicate. The binding kinetics (association and dissociation) were monitored via sensorgrams during antigen injection and running buffer re-equilibration. The sensorgrams were double-referenced and fit to a 1:1 binding model using Scrubber 2.0 software (BioLogic Software Pty Ltd., Australia) to determine association and dissociation rates, as well as overall KD. Standard errors of determined values are reported in parentheses with respect to the smallest number place value.

bovine serum albumin [4] = target: T2, bovine serum albumin; experiment: sandwich EIA, rabbit anti-GP73 coated 1 ug/mL, BSA background, supernatant 1:125, HRP goat anti-mouse IgG Fc
Protocol: as §1
(§3) The 24 well cultures were then evaluated by EIA for their ability to form a sandwich with the rabbit anti-GP73 used as a capture reagent coated directly on the solid phase. The same EIA protocol previously described was used, except rabbit anti-GP73 antibody was coated at 1 μg/mL, the GP73-hFc was tested at 200 ng/mL, and a HRP labeled goat anti-mouse IgG FC antibody was used as the conjugate reagent to generate signal.

[5] = target: T1, GP73-hFc (human GP73 amino acids 63 to …); experiment: sandwich EIA, rabbit anti-GP73 coated 1 ug/mL, GP73-hFc 200 ng/mL, supernatant 1:125, HRP goat anti-mouse IgG Fc
Protocol: as §1, §3

T2 sequence (P02769 25-607 limits assumed): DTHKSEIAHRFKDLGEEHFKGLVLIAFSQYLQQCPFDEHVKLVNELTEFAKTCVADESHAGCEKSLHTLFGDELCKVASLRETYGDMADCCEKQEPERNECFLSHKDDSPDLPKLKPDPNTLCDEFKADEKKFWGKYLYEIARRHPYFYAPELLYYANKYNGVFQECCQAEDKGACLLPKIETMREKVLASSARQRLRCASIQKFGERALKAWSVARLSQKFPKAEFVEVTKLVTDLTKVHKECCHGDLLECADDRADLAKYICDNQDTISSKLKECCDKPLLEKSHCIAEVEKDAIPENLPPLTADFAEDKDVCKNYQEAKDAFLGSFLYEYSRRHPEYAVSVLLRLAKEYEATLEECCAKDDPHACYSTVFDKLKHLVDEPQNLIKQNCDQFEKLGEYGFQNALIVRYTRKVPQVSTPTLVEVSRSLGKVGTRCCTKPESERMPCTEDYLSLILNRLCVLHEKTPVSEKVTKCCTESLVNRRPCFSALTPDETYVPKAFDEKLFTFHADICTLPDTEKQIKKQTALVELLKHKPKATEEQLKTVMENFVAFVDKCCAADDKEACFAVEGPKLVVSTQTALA

BSA Background OD (A492) (bovine serum albumin [1]) | GP73-hFc OD (A492) [2] | Kd [3] [nM] | kon [3] [M⁻¹ s⁻¹] | BSA Background OD (A492) (bovine serum albumin [4]) | GP73-hFc OD (A492) [5] | koff [3] [s⁻¹] | Binder
0.1 OD (A492) | 2.1 OD (A492) | ≤ 0.002 | 3.9e+06 | 0.1 OD (A492) | 1.6 OD (A492) |  | anti-GP73 monoclonal antibody 1B-4971 (antibody, V domains shown, Biotin labelled in some assays; also called mAb 1B-4971; 1B-4971-Bt) VH: QVQLQQSGPALVKPGASVKMSCKASGYTFTNYVIHWVKQKPGQGLERIGYIWPYNDGTKFNEKFKGKATLTSDKSSSTAYMELSSLTSEDSAVYYCSSQQLAYWGQGTTLTVSS VL: not shown
0.09 OD (A492) | 1.51 OD (A492) | 0.091 | 1.98e+06 | 0.12 OD (A492) | 0.76 OD (A492) | 0.00018 | anti-GP73 monoclonal antibody 1B-3440 (antibody, V domains shown, Biotin labelled in some assays; also called mAb 1B-3440; 1B-3440-Bt) VH: EVQLVETGGGLVQPKGSLKLSCAASGFTFNTNAMNWVRQAPGKGLEWVARIRTKRYNYTTFYADSVKDRFTISRDDSQSMLFLQMNNLKTEDTAMYYCVTGGTGTFDYWGQGTTLTVSS VL: EIVLTQSPTTMPASPGEKVTFTCSASSGISSNYLHWYQLKPGFSPKLLIYRTSNLASGVPARFSGGGSGTSYSLTIGTMEAEDVATYYCQQGFSIPLTFGAGTKLELKR
0.06 OD (A492) | 1.61 OD (A492) | 0.12 | 2.06e+06 | 0.1 OD (A492) | 1.41 OD (A492) | 0.00025 | anti-GP73 monoclonal antibody 1B-4863 (antibody, V domains shown, Biotin labelled in some assays; also called mAb 1B-4863; 1B-4863-Bt) VH: QVQLKESGPGLVAPSQSLSITCTVSGFSLTSYGVHWVRQSPGKGLEWLGVIWTGGSTNYNSALMSRLSISKDNSESQVFLKVNSLQTDDTGMYYCARDPGTDYFDYWGQGTTLTVSS VL: DIVMTQSHKFMSTSIGDRVSISCKASQDVSIDVSWYQQKPGQSPTLLIYSASYRYIGVPDRFTGSGSGTAFTFTISSVQAEDLAIYYCQQHFTTPLTFGAGTKLELKR
